Test results from paper PMC11246429 (2024).
One block for each molecule: values may come before it.

How the values were obtained:
[1] = biological target: AP180 segment 471–700 (rat); assay: NMR titration; unlabeled AP2α titrated into 15N labeled AP180 (50 μM AP180 471–700, 90 μM AP180IDR); 1H-15N HSQC and 15N R1ρ; residue-wise KD from R1ρ against AP2α concentration; NMR buffer 50 mM Na-phosphate pH 6, 150 mM NaCl, 2 mM DTT, 25 °C
AP180 399-598 (rat) = assay: ITC; AP2β2 mutants titrated into 0.04 mM AP180 399-598 in the cell; 25 °C; 150 mM NaCl, 50 mM Na-phosphate, 0.2 mM TCEP, pH 7.5; 1:1 binding model
[2] = biological target: AP180 IDR (residues 281–898 of AP180) (rat); assay: NMR titration; unlabeled CHCTD (in 50 mM Na-phosphate pH 7.5, 150 mM NaCl, 2 mM DTT) titrated into 15N labeled AP180 in NMR buffer (pH 6); 1H-15N HSQC and 15N R1ρ; residue-wise KD from a linear fit of R1ρ against CHCTD concentration under the assumption of weak binding; 25 °C
[3] = biological target: AP180 segment 399–598 (rat); assay: ITC; 0.03 mM AP180 construct in the cell (0.04 mM AP180 399–598 for the AP2β2 mutants), 2 μl steps of 0.3 mM AP2β2; 25 °C; 150 mM NaCl, 50 mM Na-phosphate, 0.2 mM TCEP, pH 7.5; 1:1 binding model
[4] = biological target: AP180 IDR (residues 281–898 of AP180) (rat); assay: as above
[5] = biological target: AP180 430–500 (extended interaction motif, EIM) (rat); assay: as above
[6] = biological target: AP180 segment 399–598 (rat); assay: NMR CPMG relaxation dispersion; 100 μM 15N AP180 399–598 with 10 μM unlabeled AP2β2; 600 and 850 MHz; 22 residues fitted together with a two-state exchange model (ChemEx); KD calculated from pB under the assumption of 1:1 stoichiometry
[7] = biological target: T1, AP2 β2-appendage domain with linker (residues 617–951) (bovine, UniProt Q08DS7 617-951); assay: ITC
T1 chain: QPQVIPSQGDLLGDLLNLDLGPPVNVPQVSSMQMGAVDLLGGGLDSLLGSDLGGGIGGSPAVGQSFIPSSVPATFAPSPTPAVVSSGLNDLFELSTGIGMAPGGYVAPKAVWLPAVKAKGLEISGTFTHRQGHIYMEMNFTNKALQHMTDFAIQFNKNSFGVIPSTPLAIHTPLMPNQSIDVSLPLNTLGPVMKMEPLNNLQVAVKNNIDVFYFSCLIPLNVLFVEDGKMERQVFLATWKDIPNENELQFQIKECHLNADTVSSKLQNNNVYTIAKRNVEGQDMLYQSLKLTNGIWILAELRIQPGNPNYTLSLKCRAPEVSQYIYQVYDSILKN

Sequence of AP180 segment 471–700 (rat) (Q05140 whole entry): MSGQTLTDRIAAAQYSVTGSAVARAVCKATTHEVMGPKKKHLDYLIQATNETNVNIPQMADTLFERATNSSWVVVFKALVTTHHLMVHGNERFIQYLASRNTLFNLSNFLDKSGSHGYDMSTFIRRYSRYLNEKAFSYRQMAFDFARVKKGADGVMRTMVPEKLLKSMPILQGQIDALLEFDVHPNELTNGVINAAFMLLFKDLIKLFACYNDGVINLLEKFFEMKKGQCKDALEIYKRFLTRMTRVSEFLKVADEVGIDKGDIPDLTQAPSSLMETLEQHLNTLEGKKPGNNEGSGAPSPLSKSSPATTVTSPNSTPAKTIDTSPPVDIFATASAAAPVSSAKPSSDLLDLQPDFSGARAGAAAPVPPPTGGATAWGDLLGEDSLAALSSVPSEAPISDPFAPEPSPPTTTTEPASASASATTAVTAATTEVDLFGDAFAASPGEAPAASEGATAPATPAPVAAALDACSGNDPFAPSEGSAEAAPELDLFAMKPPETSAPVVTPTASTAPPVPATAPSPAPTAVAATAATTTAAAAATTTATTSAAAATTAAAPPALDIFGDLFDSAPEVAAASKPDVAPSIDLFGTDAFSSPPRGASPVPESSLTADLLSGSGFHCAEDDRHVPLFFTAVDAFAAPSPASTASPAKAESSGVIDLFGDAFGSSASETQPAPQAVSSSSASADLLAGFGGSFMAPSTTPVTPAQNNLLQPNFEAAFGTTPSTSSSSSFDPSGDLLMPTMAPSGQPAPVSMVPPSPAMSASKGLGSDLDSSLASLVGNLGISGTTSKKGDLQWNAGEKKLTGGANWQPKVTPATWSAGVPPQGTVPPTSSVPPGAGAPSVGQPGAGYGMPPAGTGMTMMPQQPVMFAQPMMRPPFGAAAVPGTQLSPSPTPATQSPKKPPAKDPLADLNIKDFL

Molecule: AP2 α-appendage domain (residues 701–938) (from UniProt P17427 701-938) (domain or fragment)
residue-wise KD (first residue of Fig. 3D) [1]: 144 µM
residue-wise KD (second residue of Fig. 3D) [1]: 380 µM
residue-wise KD (third residue of Fig. 3D) [1]: 414 µM

Molecule: AP2β2 K842E (domain or fragment)
Kd (AP180 399-598 (rat)): 7.8 µM

Molecule: AP2β2 Y888A (domain or fragment)
Kd (AP180 399-598 (rat)): 7.3 µM

Molecule: clathrin heavy chain terminal domain (residues 1–363) (from UniProt P49951 1-363) (domain or fragment)
residue-wise KD (first residue of Fig. 2E) [2]: 177 µM
residue-wise KD (fourth residue of Fig. 2E) [2]: 700 µM
residue-wise KD (second residue of Fig. 2E) [2]: 294 µM
residue-wise KD (third residue of Fig. 2E) [2]: 549 µM

B1: AP2 β2-appendage domain with linker (residues 617–951) (domain or fragment)
chain: QPQVIPSQGDLLGDLLNLDLGPPVNVPQVSSMQMGAVDLLGGGLDSLLGSDLGGGIGGSPAVGQSFIPSSVPATFAPSPTPAVVSSGLNDLFELSTGIGMAPGGYVAPKAVWLPAVKAKGLEISGTFTHRQGHIYMEMNFTNKALQHMTDFAIQFNKNSFGVIPSTPLAIHTPLMPNQSIDVSLPLNTLGPVMKMEPLNNLQVAVKNNIDVFYFSCLIPLNVLFVEDGKMERQVFLATWKDIPNENELQFQIKECHLNADTVSSKLQNNNVYTIAKRNVEGQDMLYQSLKLTNGIWILAELRIQPGNPNYTLSLKCRAPEVSQYIYQVYDSILKN
Kd [3]: 5.1 µM
Kd [4]: 6.97 µM
Kd [5]: 2500 nM
Kd [6]: 10 µM
exchange rate kex (kon [AP2β2] + koff) [6]: 662 s⁻¹
percentage of bound population of AP180 (10% AP2β2) [6]: 8.9%

Now from value to molecule:

Kd (AP180 399-598 (rat)): 4.9 µM
Molecule: AP2β2 Y815A (domain or fragment)

Kd [7]: 4.2 µM
B2: AP180 IDR (residues 281–898 of AP180) (domain or fragment)
chain: GHMHLNTLEGKKPGNNEGSGAPSPLSKSSPATTVTSPNSTPAKTIDTSPPVDIFATASAAAPVSSAKPSSDLLDLQPDFSGAAAGAAAPVPPPTGGATAWGDLLGEDSLAALSSVPSEAPISDPFAPEPSPPTTTTEPASASASATTAVTAATTEVDLFGDAFAASPGEAPAASEGATAPATPAPVAAALDACSGNDPFAPSEGSAEAAPELDLFAMKPPETSAPVVTPTASTAPPVPATAPSPAPTAVAATAAATTTTTAAAATTTATTSAAAAATAAAPPALDIFGDLFDSAPEVAAASKPDVAPSIDLFGTDAFSSPPRGASPVPESSLTADLLSVDAFAAPSPASTASPAKAESSGVIDLFGDAFGSSASETQPAPQAVSSSSASADLLAGFGGSFMAPSTTPVTPAQNNLLQPNFEAAFGTTPSTSSSSSFDPSGDLLMPTMAPSGQPAPVSMVPPSPAMSASKGLGSDLDSSLASLVGNLGISGTTSKKGDLQWNAGEKKLTGGANWQPKVTPATWSAGVPPQGTVPPTSSVPPGAGAPSVGQPGAGYGMPPAGTGMTMMPQQPVMFAQPMMRPPFGAAAVPGTQLSPSPTPATQSPKKPPAKDPLADLNIKDFLLEHHHHHH
